Measured values from patent US20260103526A1 (OSE IMMUNOTHERAPEUTICS, published 2026).

Legend:
[1] = target: T1, Fc-CLEC-1A (recombinant human Fc-CLEC-1 protein, OSE IMMUNOTHERAPEUTICS) (human, Alexa Fluor 488 label in the flow cytometry competition assays); test: flow cytometry competition: antibody pre-incubated with A488-labelled human Fc-CLEC-1 (10 µg/mL), then binding to live MC38 cells (ligand m16); % hFc-CLEC-1+ cells normalised on hIgG4
T1 construct: also called hFc-CLEC; Fc-CLEC1-A488
T1 chain: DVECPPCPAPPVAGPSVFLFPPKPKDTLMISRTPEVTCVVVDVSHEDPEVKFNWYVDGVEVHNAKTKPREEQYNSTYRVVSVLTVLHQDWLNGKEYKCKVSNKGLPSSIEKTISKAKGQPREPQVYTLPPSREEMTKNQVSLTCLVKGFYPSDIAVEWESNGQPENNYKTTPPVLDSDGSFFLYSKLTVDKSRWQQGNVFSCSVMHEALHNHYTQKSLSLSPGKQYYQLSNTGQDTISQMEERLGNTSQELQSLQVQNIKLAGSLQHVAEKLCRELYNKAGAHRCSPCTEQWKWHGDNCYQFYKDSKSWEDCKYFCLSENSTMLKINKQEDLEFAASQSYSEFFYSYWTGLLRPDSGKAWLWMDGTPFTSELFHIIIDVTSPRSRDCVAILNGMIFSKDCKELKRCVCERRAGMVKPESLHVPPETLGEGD
From the text: (§1) Murine hepatoma Hepa 1.6 or colorectal carcinoma MC38 cell lines were also used in an antagonist assay. […] Finally, cells were fixed with 1% PFA solution and read on a cytometer.

[2] = target: T1, Fc-CLEC-1A (recombinant human Fc-CLEC-1 …); test: flow cytometry competition: antibody pre-incubated with A488-labelled human Fc-CLEC-1 (10 µg/mL), then binding to live Hepa1.6 cells (ligand m16); % hFc-CLEC-1+ cells normalised on hIgG4
From the text: as §1

[3] = target: T2, recombinant hCLEC1-His (R&D SYSTEMS reference 1704-CL) (human, UniProt Q8NC01 74-280, limits assumed); test: BLITZ: CLEC-His immobilised on a NINTA biosensor (10 µg/ml), antibody at 20 µg/ml, 120 s association and 120 s dissociation
T2 construct: Bought protein; also called CLEC-His; Clec-His; not shown: His tag
T2 sequence: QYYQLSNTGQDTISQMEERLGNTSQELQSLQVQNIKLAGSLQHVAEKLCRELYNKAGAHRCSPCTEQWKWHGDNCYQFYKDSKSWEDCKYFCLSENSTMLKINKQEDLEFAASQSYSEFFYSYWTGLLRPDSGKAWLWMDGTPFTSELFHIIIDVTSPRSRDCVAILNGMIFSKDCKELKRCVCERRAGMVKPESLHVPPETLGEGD

[4] = target: T3, mice CLEC-1A protein (mouse, UniProt Q8BWY2 73-269, limits assumed); test: in vitro; assay not given
T3 construct: also called mice orthologue of CLEC-1A
T3 sequence (looked up): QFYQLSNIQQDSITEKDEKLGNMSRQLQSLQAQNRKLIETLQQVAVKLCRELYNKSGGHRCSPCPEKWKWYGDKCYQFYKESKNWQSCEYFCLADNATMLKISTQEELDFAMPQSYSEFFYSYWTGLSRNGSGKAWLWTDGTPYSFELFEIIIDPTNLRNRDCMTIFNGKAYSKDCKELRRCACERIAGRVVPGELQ

[5] = target: T1, Fc-CLEC-1A (recombinant human Fc-CLEC-1 …); test: flow cytometry competition: antibody pre-incubated with A488-labelled Fc-CLEC1 (10 nM), then binding to permeabilised Raji cells (CLEC-1 ligand m15); % stained cells
[6] = target: T1, Fc-CLEC-1A (recombinant human Fc-CLEC-1 …); test: flow cytometry competition; inhibition of Fc-CLEC-1-A488 binding to Hepa 1.6 cells; reference chimeric 14H9
From the text: as §1

[7] = target: T1, Fc-CLEC-1A (recombinant human Fc-CLEC-1 …); test: flow cytometry competition: antibody pre-incubated with A488-labelled Fc-CLEC1 (100 nM), then binding to permeabilised NALM6 cells (CLEC-1 ligand m15); % stained cells
Experimental: Revelation was performed on CYTOFLEX cytometer, values corresponding to percentage of stained cells (%).
To measure competition on NALM6 cells.

[8] = target: T1, Fc-CLEC-1A (recombinant human Fc-CLEC-1 …); test: flow cytometry competition; inhibition of Fc-CLEC-1-A488 binding to Hepa 1.6 or MC38 cells; reference chimeric 11H11
From the text: as §1

[9] = target: T1, Fc-CLEC-1A (recombinant human Fc-CLEC-1 …); test: flow cytometry competition; inhibition of Fc-CLEC-1-A488 binding to Hepa 1.6 or MC38 cells; reference chimeric 6C5
From the text: as §1

B1: chimeric 11H11 (antibody, V domains shown)
VH: QIHLVQSGPELKKPGETVKISCKASGYTFTNFGMNWVKQAPGKGLKWMGWINTNTGEPTYADDFKGRFAFSLETSASTAYLQINNLKNEDTATYFCARGAPAWFTYWGQGTLVTVSA
VL: DIQMTQSPASLSASVGETVTITCRATENIYSYLAWYQQKQGKSPQFLVYNAKTLAEGMPSRFSGSGSGTQFSLKINILQPEDFGTYYCQHHFGTPLTFGAGTKLELKR
With B1 the EC50 [1] was 2.33 µg/mL and the EC50 [2] was 2.58 µg/mL.

B2: humanized 14H9 (antibody, V domains shown)
VH: QVQLVESGGGVVQPGRSLRLSCAISGFTLTTYGIHWVRQAPGKGLEWVAVIWSDASTIYASSLKSRFTISKDNTKNTVYLQMTSLRAEDTAVYYCARHGGYYNYFDYWGQGTLVTVSS
VL: DIQMTQSPSSLSASVGDRVTITCHASQNINVWLSWYQQKPGKAPKLLLYKASNLHTGVPSRFSGSGSGTDFTLTISSLQPEDIATYYCQQGQSYWTFGGGTKVEIK
notes: Only variable domains are tied to the antibody
B2 showed a Kd [3] of 5.4 nM, a koff [3] of 0.000419 s⁻¹ and a kon [3] of 77700 M⁻¹ s⁻¹. The binding result [4] was “no binding”, the “IC50 (read off the curve)” value [5] was roughly 0.2 µg/mL and the EC50 [2] was 0.539 µg/mL. The “EC50 ratio, humanized against chimeric counterpart” value (“EC50 ratio, humanized” below) [6] was ≤ 0.5 fold (EC50 humanized / EC50 chimeric) and the “IC50 (read off the curve)” value [7] was roughly 3 µg/mL.

B3: chimeric 6C5 (antibody, V domains shown)
VH: QVQLQQSGPELVKPGASVKMSCKASGYTFTDYVISWVKQKTGQGLEWIGEIYPGSGNTYYNEKFKGKATLTADKSSSTAYIHLSSLTSEDSAVYFCAGGGSSHFDYWGQGTTLTVSS
VL: not shown
B3 was tested, and the EC50 [1] was 2.81 µg/mL and the EC50 [2] was 2.44 µg/mL.

B4: chimeric 14H9 (antibody, V domains shown)
VH: QVQLKESGPGLVAPSQSLSITCTISGFSLTTYGIHWVRQPPGKGLEWLVVIWSDGSTIYNSALKSRLSISKDNSKSQVFLKMNSLQTDDTAIYYCARHGGYYNYFDYWGQGTTLTVSS
VL: DIQMNQSPSSLSASLGDTITITCHASQNINVWLSWYQQKPGNIPKLLIYKASNLHTGVPSRFSGSGSGTTFTLTIDSLQPEDIATYYCQQGQSYWTFGGGTKLEIKR
Work on B4 yielded an EC50 [2] of 2.72 µg/mL.

B5: humanized 11H11 (antibody, human IgG4, V domains shown)
VH: QIQLVQSGSELKKPGASVKVSCKASGYTFTNFGMNWVRQAPGQGLEWMGWINTNTGEPTYADDFKGRFVFSLDTSVSTAYLQISSLKAEDTATYFCARGAPAWFTYWGQGTTVTVSS
VL: DIQMTQSPSSLSASVGDRVTITCRASESIYSYLAWYQQKPGKAPKFLIYNAKTLASGVPSRFSGSGSGTDFTLTISSLQPEDFATYYCQHHFGTPLTFGQGTKLEIK
notes: Only variable domains are tied to the antibody; also called hum 11H11
B5 was tested, and the Kd [3] was 0.301 nM, the koff [3] was 7.19e-05 s⁻¹ and the kon [3] was 239000 M⁻¹ s⁻¹. The binding result [4] was “no binding”, the EC50 [1] was 1.33 µg/mL and the EC50 [2] was 0.542 µg/mL. The “EC50 ratio, humanized” value [8] was ≤ 0.5 fold (EC50 humanized / EC50 chimeric) and the “IC50 (read off the curve)” value [7] was roughly 3 µg/mL.

B6: humanized 6C5 (antibody, V domains shown)
VH: QVQLVQSGAEVKKPGSSVKMSCKASGYTFTDYVISWVRQAPGQGLEWMGEIYPGSGNTYYNQKFQGRVTLTADKSTSTAYMELSSLRSEDTAVYYCAGGGSSHFDYWGQGTTVTVSS
VL: EIVLTQSPATLSLSPGERATLSCRASQSVDNHGFSFMNWFQQKPGQAPRLLIYAASNRGTGIPARFSGSGSGTDFTLTISSMEPEDFAVYYCQQSKEVPWTFGGGTKVEIK
notes: as for B2
With B6 the Kd [3] was 5.69 nM, the koff [3] was 0.000275 s⁻¹ and the kon [3] was 48300 M⁻¹ s⁻¹. The binding result [4] was “no binding”, the EC50 [1] was 0.522 µg/mL and the EC50 [2] was 1.06 µg/mL. For the same binder, the “EC50 ratio, humanized” value [9] was ≤ 0.5 fold (EC50 humanized / EC50 chimeric) and the “IC50 (read off the curve)” value [7] was roughly 3 µg/mL.
